B1: YPR173C 368-381 (peptide)
chain: DETRKLTPSSPGDD
B2: YLL006W 228-241 (peptide)
chain: DFIGRKSPDLPEYL
B3: YNL132W 471-484 (peptide)
chain: DEPIRYAPGDPIEK
B4: YFL036W 825-838 (peptide)
chain: DFRGRAYPLSPHFN
B5: YEL007W 26-39 (peptide)
chain: DGKLKHIPRRPYEI
B6: YER164W 1276-1289 (peptide)
chain: DIGSKKLPTGPSKK

Chain of Sho1 SH3 (SHO1_YEAST), P40073 (P40073 295-366): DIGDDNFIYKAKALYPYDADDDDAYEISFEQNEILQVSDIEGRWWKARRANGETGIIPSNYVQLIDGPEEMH

For the first test, the target named is T1, Yhr016c SH3 (YSC84_YEAST), P32793.
T1 chain: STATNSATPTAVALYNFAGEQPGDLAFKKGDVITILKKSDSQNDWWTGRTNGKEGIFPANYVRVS
The test can be described thus: SPOT array.
Regarding B1, the normalised SPOT signal, Boehringer light units (BLU); mean over the file's lines of this peptide was determined as 19.2.
Still for that read-out and setting: for B2 the value was 37.2; for B3, 9.2.
Still for that read-out and setting: the same measure for B4: 257.
Still for that read-out and setting: the same measure for B5: 48.7; for B6: 12.3.

The target in a further test is T2, Rvs167 SH3 (RV167_YEAST), P39743.
T2 chain: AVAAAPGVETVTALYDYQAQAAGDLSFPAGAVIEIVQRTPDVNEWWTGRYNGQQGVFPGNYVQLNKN
The test can be described thus: SPOT array.
Take B1: the normalised SPOT signal, Boehringer light units (BLU); mean over the file's lines of this peptide came to 52.7.
Molecule B2 returned a normalised SPOT signal, Boehringer light units (BLU); mean over the file's lines of this peptide of 162.
Still for that read-out and setting: for B3 the value was 26.2; for B4, 1830.
On the same count and under the same terms, the same measure for B5: 68.6.
Still for that read-out and setting: the same measure for B6: 38.1.

A further test deals with T3, Boi2 SH3 (BOI2_YEAST), P39969.
T3 chain: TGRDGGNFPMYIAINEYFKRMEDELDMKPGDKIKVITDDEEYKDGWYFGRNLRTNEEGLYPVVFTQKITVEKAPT
The experiment in a line: SPOT array.
As to B1, the normalised SPOT signal, Boehringer light units (BLU); mean over the file's lines of this peptide was 16.6.
In turn, B2 registered a normalised SPOT signal, Boehringer light units (BLU); mean over the file's lines of this peptide of 41.4.
In turn, B3 had a normalised SPOT signal, Boehringer light units (BLU); mean over the file's lines of this peptide of 1.
Still for that read-out and setting: the same measure for B4: 1390; for B5: 3.5; for B6: 34.4.

A further test concerns the target Sho1 SH3 (SHO1_YEAST), P40073. The test can be described thus: SPOT array.
In turn, B1 returned a normalised SPOT signal, Boehringer light units (BLU); mean over the file's lines of this peptide of 33.5.
Still for that read-out and setting: the same measure for B2: 17.3; for B3: 54.9; for B4: 975.
The same measure, in the same setting: for B5 the value was 48.8; for B6, 608.

For the next test, the target named is T4, Yfr024 SH3 (LSB3_YEAST), P43603.
T4 chain: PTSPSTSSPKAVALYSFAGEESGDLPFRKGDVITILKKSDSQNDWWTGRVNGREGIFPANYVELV
The experiment in a line: SPOT array.
In turn, B1 showed a normalised SPOT signal, Boehringer light units (BLU); mean over the file's lines of this peptide of 62.3.
B2 registered a normalised SPOT signal, Boehringer light units (BLU); mean over the file's lines of this peptide of 59.3.
In the case of B3, the normalised SPOT signal, Boehringer light units (BLU); mean over the file's lines of this peptide was 0.5.
Molecule B4 came in with a normalised SPOT signal, Boehringer light units (BLU); mean over the file's lines of this peptide of 1600.
In turn, B5 yielded a normalised SPOT signal, Boehringer light units (BLU); mean over the file's lines of this peptide of 315.
Still for that read-out and setting: for B6 the value was 50.

A further test addresses T5, Boi1 SH3 (BOI1_YEAST), P38041.
T5 chain: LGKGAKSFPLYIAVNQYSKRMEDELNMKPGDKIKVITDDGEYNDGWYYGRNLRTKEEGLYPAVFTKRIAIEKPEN
The test can be described thus: SPOT array.
As to B1, the normalised SPOT signal, Boehringer light units (BLU); mean over the file's lines of this peptide worked out at 0.
In turn, B2 came in with a normalised SPOT signal, Boehringer light units (BLU); mean over the file's lines of this peptide of 137.
As for B3, the normalised SPOT signal, Boehringer light units (BLU); mean over the file's lines of this peptide was 57.2.
The same measure, in the same setting: for B4 the value was 5020; for B5, 1850.
In turn, B6 showed a normalised SPOT signal, Boehringer light units (BLU); mean over the file's lines of this peptide of 3940.

The next test concerns the target T6, Myo5 SH3 (MYO5_YEAST), Q04439.
T6 chain: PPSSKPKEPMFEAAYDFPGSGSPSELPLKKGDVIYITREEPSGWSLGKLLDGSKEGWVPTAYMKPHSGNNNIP
The test can be described thus: SPOT array.
The molecule B1 yielded a normalised SPOT signal, Boehringer light units (BLU); mean over the file's lines of this peptide of 231.
On the same count and under the same terms, for B2 the value was 139.
For the molecule B3, the normalised SPOT signal, Boehringer light units (BLU); mean over the file's lines of this peptide is 106.
The molecule B4 returned a normalised SPOT signal, Boehringer light units (BLU); mean over the file's lines of this peptide of 785.
B5 returned a normalised SPOT signal, Boehringer light units (BLU); mean over the file's lines of this peptide of 307.
On the same count and under the same terms, the same measure for B6: 220.
